From US9206432B2, “Sulfonylurea-responsive repressor proteins” (priority 2008, dated 2015)
Positions count from the first letter of the chain named.

Test system: lacZ under control of the tetA promoter (PtetA) in E. coli KM3
Format: cell-based
Settings: for 0.2 ppm 48 hr (colony color intensity, induction by chlorsulfuron): 0.2 ppm chlorsulfuron as inducer, 48 hr at 30° C.; for 0.2 ppm 48 hr (colony color intensity, induction by chlorsulfuron) / Control 84 hr (background activity, no inducer): M9 assay plates, ImageJ colony color intensity; for Control 84 hr (background activity, no inducer): 84 hr at 30° C.

B1: L1-34: library L1 hit with reverse repressor activity (SEQ ID NO: 1206-1213) (protein)
chain: MGSRLDKSKVINSALELLNEVGIEGLTTRKLAQKLGVEQPTLYWHVKNKRALLDALAIEMADRHNTHFCPLEGESWQDFLRNAARSMRCALLSHRDGAKVYLGTARTEKQYETTENVLAFLCQQGFSLENALYAVRAVPRFTLGCVLLDQERQVAKEERETPTTDSMPPLLRQARELTDHQGAEPAFLFGLELIICGLEKQLKCESGS
modifications: rSuR L1-34
- relative β-galactosidase activity, inducer atc (Table 6, reverse repressor hits, anhydrotetracycline (0.4 μM)): 3.68
- relative β-galactosidase activity, inducer Ci (Table 6, reverse repressor hits, chlorimuron, same plate assay format (20 ppm)): 0.43
- relative β-galactosidase activity, inducer Cs (Table 6, reverse repressor hits, chlorsulfuron, same plate assay format (20 ppm)): 0.85
- relative β-galactosidase activity, inducer Es (Table 6, reverse repressor hits, ethametsulfuron, same plate assay format (20 ppm)): 1.33
- relative β-galactosidase activity, inducer Ms (Table 6, reverse repressor hits, metsulfuron, same plate assay format (20 ppm)): 1.47
- relative β-galactosidase activity, inducer Ns (Table 6, reverse repressor hits, nicosulfuron, same plate assay format (20 ppm)): 2.91
- relative β-galactosidase activity, inducer Rs (Table 6, reverse repressor hits, rimsulfuron, same plate assay format (20 ppm)): 2.30
- relative β-galactosidase activity, inducer Sm (Table 6, reverse repressor hits, sulfometuron, same plate assay format (20 ppm)): 2.00
- relative β-galactosidase activity, inducer Ts (Table 6, reverse repressor hits, thifensulfuron, same plate assay format (20 ppm)): 2.97
- relative β-galactosidase activity, inducer Tb (Table 6, reverse repressor hits, tribenuron, same plate assay format (20 ppm)): 2.26

B2: L6-1B03 (protein)
chain: MGSRLDKSKVINSALELLNEVGIEGLTTRKLAQKLGVEQPTLYWHVKNKRALLDALAIEMMDRHATHICPLEGESWQDFLRNNAKSMRCALLSHRDGAKVCLGTRWTEQQYEAAENMLAFLCQQGFSLENALYAVSAVRVFTLGCVLFDQESQVAKEERETPTTASMPPLLRQAWELKDHQGAEPAFLFGLELIICGLEKQLKCESGS
modifications: Sulfonylurea responsive repressor L6-1B03
- 0.2 ppm 48 hr/Control 84 hr: 4.6
- 0.2 ppm 48 hr (colony color intensity, induction by chlorsulfuron): 30.0
- Control 84 hr (background activity, no inducer): 6.6

B3: L6-3H02: SuR polypeptide, SEQ ID NO: 94 (protein)
chain: B2 chain with I68Y, N83T, Q110H, A113S, L171V, D179V
modifications: Sulfonylurea responsive repressor L6-3H02
- 0.2 ppm 48 hr/Control 84 hr: 2.8
- 0.2 ppm 48 hr (colony color intensity, induction by chlorsulfuron): 15.8
- Control 84 hr (background activity, no inducer): 5.6

B4: L6-2D07 (protein)
chain: B2 chain with A65Q, I68F, N83T, A113T, V135M, L171V
modifications: Sulfonylurea responsive repressor L6-2D07
- 0.2 ppm 48 hr/Control 84 hr: 3.4
- 0.2 ppm 48 hr (colony color intensity, induction by chlorsulfuron): 20.0
- Control 84 hr (background activity, no inducer): 5.8

B5: L6-4D10 (protein)
chain: B2 chain with A65Q, I68Y, Q109K, A113S
modifications: Sulfonylurea responsive repressor L6-4D10
- 0.2 ppm 48 hr/Control 84 hr: 3.7
- 0.2 ppm 48 hr (colony color intensity, induction by chlorsulfuron): 18.4
- Control 84 hr (background activity, no inducer): 5.0

B6: L6-5G06 (protein)
chain: B2 chain with A65Q, I68Y, A113T, M117Q, S152L, A174G
modifications: Sulfonylurea responsive repressor L6-5G06
- 0.2 ppm 48 hr/Control 84 hr: 4.9
- 0.2 ppm 48 hr (colony color intensity, induction by chlorsulfuron): 34.4
- Control 84 hr (background activity, no inducer): 7.0

B7: L6-5H12 (protein)
chain: B2 chain with I68Y, Q109K, A113T, M117Q, V135M, S152L, L171V
modifications: Sulfonylurea responsive repressor L6-5H12
- 0.2 ppm 48 hr/Control 84 hr: 4.2
- 0.2 ppm 48 hr (colony color intensity, induction by chlorsulfuron): 23.7
- Control 84 hr (background activity, no inducer): 5.7

B8: L6-6F07 (protein)
chain: B2 chain with I68L, N83T, A113S, V135M
modifications: Sulfonylurea responsive repressor L6-6F07
- 0.2 ppm 48 hr/Control 84 hr: 2.3
- 0.2 ppm 48 hr (colony color intensity, induction by chlorsulfuron): 11.6
- Control 84 hr (background activity, no inducer): 5.1

B9: L6-5H06 (protein)
chain: B2 chain with A65Q, Q109K, A113T, S152L, L171V
modifications: Sulfonylurea responsive repressor L6-5H06
- 0.2 ppm 48 hr/Control 84 hr: 2.7
- 0.2 ppm 48 hr (colony color intensity, induction by chlorsulfuron): 13.7
- Control 84 hr (background activity, no inducer): 5.1

B10: L6-2C09 (protein)
chain: B2 chain with A65Q, I68Y, N83T, Q110L, A113T, M117Q, V135M, S152L
modifications: Sulfonylurea responsive repressor L6-2C09
- 0.2 ppm 48 hr/Control 84 hr: 2.6
- 0.2 ppm 48 hr (colony color intensity, induction by chlorsulfuron): 13.6
- Control 84 hr (background activity, no inducer): 5.2

B11: L6-5F05 (protein)
chain: B2 chain with M117Q, S152L
modifications: Sulfonylurea responsive repressor L6-5F05
- 0.2 ppm 48 hr/Control 84 hr: 4.1
- 0.2 ppm 48 hr (colony color intensity, induction by chlorsulfuron): 22.0
- Control 84 hr (background activity, no inducer): 5.4
